Experimental data as given in patent US20220242950A1 (CANTARGIA, published 2022).
Like-named read-outs stand apart in the source and are kept apart here.

T1: human IL1RAP on the cell surface (human, UniProt Q9NPH3 21-570)
T1 sequence (looked up): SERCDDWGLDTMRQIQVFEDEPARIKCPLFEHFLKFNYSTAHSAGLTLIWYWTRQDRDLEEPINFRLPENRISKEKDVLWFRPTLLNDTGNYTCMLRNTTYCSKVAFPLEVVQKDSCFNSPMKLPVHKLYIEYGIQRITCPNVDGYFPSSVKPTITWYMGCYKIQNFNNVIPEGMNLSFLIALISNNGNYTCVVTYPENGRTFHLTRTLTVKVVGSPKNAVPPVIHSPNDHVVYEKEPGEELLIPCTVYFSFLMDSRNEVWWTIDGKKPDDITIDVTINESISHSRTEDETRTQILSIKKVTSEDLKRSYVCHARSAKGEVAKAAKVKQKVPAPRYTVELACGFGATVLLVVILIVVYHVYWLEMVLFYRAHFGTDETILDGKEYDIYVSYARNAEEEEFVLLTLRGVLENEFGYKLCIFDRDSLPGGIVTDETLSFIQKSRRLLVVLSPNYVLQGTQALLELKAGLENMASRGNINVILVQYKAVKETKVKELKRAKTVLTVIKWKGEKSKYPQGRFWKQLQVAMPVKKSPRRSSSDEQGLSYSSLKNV

T2: recombinant hIL1RAP Domain1+2+3 (aa21-367) (human, UniProt Q9NPH3 21-367)
T2 construct: Numbering on Uniprot Q9NPH3
T2 sequence (looked up): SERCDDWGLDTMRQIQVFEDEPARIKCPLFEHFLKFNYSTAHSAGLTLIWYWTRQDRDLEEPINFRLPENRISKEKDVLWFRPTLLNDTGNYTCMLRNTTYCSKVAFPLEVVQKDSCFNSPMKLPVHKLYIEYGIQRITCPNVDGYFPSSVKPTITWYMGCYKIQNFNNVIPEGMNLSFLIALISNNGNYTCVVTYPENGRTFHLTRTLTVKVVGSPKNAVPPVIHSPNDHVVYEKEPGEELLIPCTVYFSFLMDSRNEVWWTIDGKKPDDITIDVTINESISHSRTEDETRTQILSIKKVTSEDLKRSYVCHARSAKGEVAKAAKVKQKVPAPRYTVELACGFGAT

T3: mouse IL1RAP (mouse (Mus musculus), UniProt Q61730 21-367, limits assumed)
T3 construct: Coated ortholog in the cross reactivity ELISA; also called mIL1RAP; murine IL1RAP
T3 sequence (looked up): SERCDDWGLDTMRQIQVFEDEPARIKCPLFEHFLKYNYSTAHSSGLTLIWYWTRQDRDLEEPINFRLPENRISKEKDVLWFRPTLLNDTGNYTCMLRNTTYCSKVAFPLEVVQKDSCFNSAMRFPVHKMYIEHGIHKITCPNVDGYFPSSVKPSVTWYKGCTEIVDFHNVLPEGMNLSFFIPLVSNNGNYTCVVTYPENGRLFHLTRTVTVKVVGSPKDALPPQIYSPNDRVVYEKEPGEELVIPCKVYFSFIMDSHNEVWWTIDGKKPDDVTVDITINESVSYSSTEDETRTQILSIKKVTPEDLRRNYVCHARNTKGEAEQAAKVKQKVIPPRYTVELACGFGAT

T4: rat IL1RAP (rat (Rattus norvegicus), UniProt Q63621 21-367, limits assumed)
T4 construct: also called rnIL1RAP
T4 sequence (looked up): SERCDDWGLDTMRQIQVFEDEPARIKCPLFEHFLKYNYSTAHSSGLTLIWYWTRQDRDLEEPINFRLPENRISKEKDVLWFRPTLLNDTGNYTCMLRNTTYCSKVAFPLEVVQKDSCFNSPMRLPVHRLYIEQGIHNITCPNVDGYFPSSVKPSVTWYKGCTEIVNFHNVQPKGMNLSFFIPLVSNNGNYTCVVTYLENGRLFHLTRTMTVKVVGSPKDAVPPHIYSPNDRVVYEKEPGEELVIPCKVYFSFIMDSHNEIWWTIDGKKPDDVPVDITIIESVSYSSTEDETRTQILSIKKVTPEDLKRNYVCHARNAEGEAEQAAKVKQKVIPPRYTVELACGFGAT

T5: recombinant mf IL1RAP aa21-367 (cynomolgus monkey (Macaca fascicularis), UniProt A0A2K5X5J5 21-367)
T5 construct: also called cynomolgus monkey IL1RAP; cyno IL1RAP
T5 sequence: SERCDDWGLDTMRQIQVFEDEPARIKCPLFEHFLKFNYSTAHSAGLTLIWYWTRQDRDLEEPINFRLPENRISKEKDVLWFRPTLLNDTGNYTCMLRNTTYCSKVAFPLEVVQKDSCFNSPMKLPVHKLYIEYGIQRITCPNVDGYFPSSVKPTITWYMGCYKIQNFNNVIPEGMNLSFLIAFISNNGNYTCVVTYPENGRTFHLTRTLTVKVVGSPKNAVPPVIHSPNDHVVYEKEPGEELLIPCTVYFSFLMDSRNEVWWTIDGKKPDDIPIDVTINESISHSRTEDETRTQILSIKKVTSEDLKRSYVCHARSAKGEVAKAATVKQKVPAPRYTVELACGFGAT


Key:
[1] = molecular target: T1, human IL1RAP on the cell surface; test: cell-based or functional assay
[2] = molecular target: T2, recombinant hIL1RAP Domain1+2+3 …; test: bio-layer interferometry, human IL1RAP
Method: (§1) Affinity measurements were done on BLItz™ Label-Free Protein Analysis System from ForteBio, using the Basic Kinetics module in the BLItz Pro 1.3.1.3 software from Molecular Devices. Protein A biosensors were hydrated in blocking buffer (PBS, 0.5% BSA, 0.05% Tween 20, pH 7.4) for minimum 10 min at room temperature before coating. Protein A biosensors were coated with antibodies by dipping the biosensors in 200 μl of antibody solution (10 μg/ml in blocking buffer) for 30 min at room temperature. The sensors were then incubated in 200 μl blocking buffer for at least 10 min before use. […] The baseline was made in blocking buffer with a duration time of 30 sec. Association was made for 120 sec in hIL1RAP followed by 120 sec dissociation in blocking buffer.
KD values for affinity towards human IL1RAP are shown in Table 17 for the de-immunized h48D2 variants. Affinity was measured using bio-layer interferometry. […] See also Table 4 for a direct comparison of 48D2, humanized 48D2, and de-immunized h48D2.

mouse IL1RAP = molecular target: T3, mouse IL1RAP; test: indirect ELISA on coated IL1RAP, goat anti-human antibody-alkaline phosphatase, absorbance at 405 nm
Method: (§2) Microtiter plate wells were coated with IL1RAP orthologs (Mus musculus, Rattus norvegicus, Macaca fascicularis (Mf, synonymous to cynomolgus monkey), Oryctolagus cuniculus, Canis lupus familiaris, Sus scrofa) and incubated for 1 hour at 37° C. Plates were washed followed by a blocking step. After 1 hour incubation at room temperature on agitation, the plates were washed again. The antibody was diluted in fourfold serial dilution, ranging from 4000 ng/ml to 0.24 ng/ml, in ELISA blocking solution, and then transferred to the ELISA plate. Plates were incubated at 37° C. in 30 min on agitation and then washed. Goat Anti-Human antibody conjugated to Alkaline Phosphatase was added and incubated 30 min at 37° C. on agitation. The plates were washed followed by addition of substrate (4-Nitrophenyl phosphate disodium salt hexahydrate). The plates were thereafter incubated at room temperature on agitation and absorbance at 405 nm measured consecutively for 50 min. Absorbance at 0 min was taken as background signal.
(§3) The antibody is added in increasing concentrations and absorbance at 405 nm is used to detect binding to IL1RAP. As for chimeric 48D2, the humanized and de-immunized variants h48D2 VH5.GL:VL4 and h48D2 VH5.GL:VL5.GL were cross reactive to IL1RAP from cynomolgus monkey (cyno) and pig, but have no cross reactivity to IL1RAP from mouse, rat, rabbit or dog (FIG. 18 and Table 20).

rat IL1RAP = molecular target: T4, rat IL1RAP; test: as above
Method: as §2, §3

[3] = molecular target: T1, human IL1RAP on the cell surface; test: cell-based or functional assay; remark: listed apart in the source
[4] = molecular target: T2, recombinant hIL1RAP Domain1+2+3 …; test: bio-layer interferometry, human IL1RAP; remark: listed apart in the source
Procedure, shortened: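 Antibodies at 10 μg/ml were loaded onto Protein A biosensors for 30 min at room temperature in PBS/0.5% BSA/0.05% Tween 20, pH 7.4. After a 30 sec baseline, association with hIL1RAP ran 120 sec, then 120 sec dissociation in buffer; KD from basic kinetics fitting.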

[5] = molecular target: T2, recombinant hIL1RAP Domain1+2+3 …; test: binding ELISA, coated recombinant hIL1RAP aa21-367
[6] = molecular target: T5, recombinant mf IL1RAP aa21-367; test: binding ELISA, coated recombinant mf IL1RAP aa21-367
[7] = molecular target: T2, recombinant hIL1RAP Domain1+2+3 …; test: BLI (BLItz), antibody on Protein A biosensor, hIL1RAP (21-367) in solution
Method: as §1
Affinity measurement results are shown in Table 4 for chimeric 48D2, as well as for humanized 48D2 variant VH5:VL4 (see Example 11) and for humanized and de-immunized 48D2 variant VH5.GL:VL4 (see Example 13). kₐ is the association rate constant, for characterization of the antibody binding to the target, kd is the dissociation rate constant, for characterization of the antibody dissociation from the target, and KD is the equilibrium dissociation constant between the antibody and its antigen, the ratio of kd/kₐ. […] The lower the KD value (lower concentration), the higher the affinity.

| IC50 of IL-1α signaling (HEK-Blue assay) [1] [nM] | IC50 of IL-1β signaling (HEK-Blue assay) [1] [nM] | IC50 of IL-33 signaling (HEK-Blue assay) [1] [nM] | IC50 of IL-36α signaling (HEK-Blue assay) [1] [nM] | IC50 of IL-36β signaling (HEK-Blue assay) [1] [nM] | IC50 of IL-36γ signaling (HEK-Blue assay) [1] [nM] | Kd [2] [nM] | binding result (mouse IL1RAP) | binding result (rat IL1RAP) | IC50 of IL-1α signaling (HEK-Blue assay) [3] [nM] | IC50 of IL-33 signaling (HEK-Blue assay) [3] [nM] | IC50 of IL-36α signaling (HEK-Blue assay) [3] [nM] | IC50 of IL-36β signaling (HEK-Blue assay) [3] [nM] | IC50 of IL-36γ signaling (HEK-Blue assay) [3] [nM] | Kd [4] [nM] | IC50 [5] [µg/mL] | IC50 [6] [µg/mL] | Kd [7] [nM] | koff [7] [s⁻¹] | kon [7] [M⁻¹ s⁻¹] | Binder |
| --- | --- | --- | --- | --- | --- | --- | --- | --- | --- | --- | --- | --- | --- | --- | --- | --- | --- | --- | --- | --- |
| 0.24 | 0.13 | 3.56 | 0.174 | 0.185 | 0.244 | 1.47 | no binding (tested: 4000 ng/mL) | no binding (tested: 4000 ng/mL) |  |  |  |  |  |  |  |  |  |  |  | h48D2 VH5.GL:VL5.GL (antibody, human IgG1, kappa, L234A L235A, Humanized and de-immunized; also called VL5.GL:VH5.GL) heavy: not shown light: DIQMTQSPSTLSASVGDRVTITCQASESISTALAWYQQKPGQPPKLLIYKASTLPSGVPSRFSGSGSGTEFTLTISDLESDDAATYYCQQGFSSGNVHNAFGGGTEVVVKRTVAAPSVFIFPPSDEQLKSGTASVVCLLNNFYPREAKVQWKVDNALQSGNSQESVTEQDSKDSTYSLSSTLTLSKADYEKHKVYACEVTHQGLSSPVTKSFNRGEC |
|  |  |  |  |  |  |  |  |  | 6.47 | 2 | ~0.0025 | ~0.342 | 2.83 | 1.67 | 0.0258 | 0.028 | 2.74 | 0.000172 | 60200 | h48D2 VH5:VL4 (antibody, human IgG1, kappa, L234A L235A, V domains shown, Humanized; also called VL4:VH5; humanized 48D2 variant VH5:VL4) VH: QEQLEESGGGLVKPGGTLSLTCTVSGPSLSHFDITWIRQAPGSGLEWIGTISPGVSTYYASWAKSRVTISVDTSLNTVSLKLSSVTAADTATYFCARGGVGSSWKAFDLWGPGTLVTISS VL: ELVMTQSPSSVSASVGDRVTITCQASESISTALAWYQQKPGKAPKLLIYKASTLPSGVPSRFSGSGSGTDFTLTINSLQPEDFATYYCQQGFSSGNVHNAFGGGTKVEIKR |
